Changes are numbered by the printed parent chain. Where no end group is shown, it is not given here. The star is where a group is joined. αGalNAc = CC(=O)N[C@@H]1[C@@H](O)[C@@H](O)[C@@H](CO)O[C@@H]1*; Galβ1‑3GalNAc = TF-antigen
T1: SEQ ID NO: 346 glycopeptide with TF-antigen at Thr4
T1 construct: also called T4^TF
T1 peptide: HGVT(Galβ1‑3GalNAc)SAPDTRPAPGSTAPP

T2: SEQ ID NO: 346 glycopeptide with TF-antigen at Ser5 (not fully specified (residue 5))
T2 construct: also called S5^TF
T2 peptide: HGVTSAPDTRPAPGSTAPP

T3: SEQ ID NO: 346 glycopeptide with TF-antigen at Thr4 and Thr9
T3 construct: also called T4^TF/T9^TF
T3 peptide: HGVT(Galβ1‑3GalNAc)SAPDT(Galβ1‑3GalNAc)RPAPGSTAPP

T4: SEQ ID NO: 346 glycopeptide with Tn-antigen at Thr4, Thr9 and Thr16
T4 construct: also called T4^Tn/T9^Tn/T16^Tn
T4 peptide: HGVT(αGalNAc)SAPDT(αGalNAc)RPAPGST(αGalNAc)APP

T5: SEQ ID NO: 346 glycopeptide with TF-antigen at Thr16
T5 construct: also called T16^TF
T5 peptide: HGVTSAPDTRPAPGST(Galβ1‑3GalNAc)APP

T6: SEQ ID NO: 346 glycopeptide with TF-antigen at Thr9
T6 construct: also called T9^TF
T6 peptide: HGVTSAPDT(Galβ1‑3GalNAc)RPAPGSTAPP

T7: Synthetic peptide (GVTSAPDTRPAPGSTAPPAH)2
T7 peptide: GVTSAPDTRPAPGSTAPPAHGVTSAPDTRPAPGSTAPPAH

T8: Synthetic peptide HGVTSAPDTRPAPGSTAPP
T8 construct: Unglycosylated; also called 346; MUC1 repeat
T8 peptide: HGVTSAPDTRPAPGSTAPP

B1: M1 (antibody, human IgG1, kappa, V domains shown)
VH: QLQLQESGPGLVKPSETLSLTCTVSGGSISSSRYYWGWIRQPPGKGLEWIGSIYYSGSTYYNPSLKSRVTISVDTSNNQFSLKLTSVTAADTAVYYCARLPESGGYSGWFDPWGQGTLVTVSS
VL: not shown
notes: Human IgG
B2: M2 (antibody, human IgG1, kappa, V domains shown)
VH: B1 VH
VL: not shown
notes: Human IgG
B3: M3 (antibody, human IgG1, lambda, V domains shown)
VH: QLQLQESGPGLVKPSETLSLTCTVSGGSISSSSYYWGWIRQPPGKGLEWIGSIYYSGSTHYNPSLKSRVTISVDTSKNQFSLKLRSVTAADTAVYYCARGVVEVRGNHYYYYYMDVWGKGTTVTVSS
VL: QSVLTQPPSVSGAPGQRVTISCTGSSSNIGAGYDVHWYQQLPGTAPKLLIYGNSYRPSGVPDRFSGSKSGTSASLAITGLQAEDEADYYCQSYDSSLSGSGVFGGGTKLTVLG
notes: Human IgG
B4: M7 (antibody, human IgG1, kappa, V domains shown)
VH: EVQLVESGGGLVQPGGSLRLSCAASGFTVSSNYMSWVRQAPGKGLEWVSVIYSGGSTYYADSVKGRFTISRDNSKNTLYLQMNSLRAEDTAVYYCARGSTNTYYYDSSGHPWGQGTMVTVSS
VL: DIVMTQSPLSLPATPGEPASISCRSSQSLLHSNGYTYLDWYLQKPGQSPQVLIYLASNRASGVPDRFSGSGSGTNFTLKISRVEAEDVGLFYCMQALQTPQTFGQGTKLEIKR
notes: Human IgG
B5: M16 (antibody, human IgG1, kappa, V domains shown)
VH: QVQLVESGGGLVKPGGSLRLSCAASGFTFSDYYMSWIRQAPGKGLEWVSYISSSGTTKYYADSVKGRFTISRDNAKNSLYLQMNSLRAEDTAVYYCVRENLGYCSGGSCFYYYYMDVWGKGTTVTVSS
VL: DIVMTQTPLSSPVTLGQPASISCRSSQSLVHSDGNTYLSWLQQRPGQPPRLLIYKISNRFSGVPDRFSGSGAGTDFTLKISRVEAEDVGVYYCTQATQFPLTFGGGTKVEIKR
notes: Human IgG
B6: M14 (antibody, human IgG1, kappa, V domains shown)
VH: B5 VH
VL: not shown
B7: M8 (antibody, human IgG1, kappa, V domains shown)
VH: B5 VH with T56S, K58I, V97A, N100R, L101I, F110Y
VL: not shown
B8: M19 (antibody, human IgG1, kappa, V domains shown)
VH: B5 VH with T28I, N100D, L101I
VL: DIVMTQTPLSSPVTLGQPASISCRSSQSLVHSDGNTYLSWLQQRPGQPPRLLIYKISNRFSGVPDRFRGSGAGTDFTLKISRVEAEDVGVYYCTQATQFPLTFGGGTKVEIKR
notes: Human IgG
B9: M18 (antibody, human IgG1, kappa, V domains shown)
VH: B5 VH with T28I, N100D, L101I
VL: not shown
notes: Human IgG
B10: M17 (antibody, human IgG1, kappa, V domains shown)
VH: B5 VH with T28I, N100D, L101I
VL: not shown
B11: M23 (antibody, human IgG1, kappa, V domains shown)
VH: B5 VH with L101I, S105T, S108N
VL: not shown
B12: M20 (antibody, human IgG1, kappa, V domains shown)
VH: EVQLVESGGGLVQPGGSLRLSCAASGFTFSSYWMHWVRQAPGKGLVWVSHINSDGSSTSYADSVKGRFTISRDNAKNTLYLQMNSLRAEDTAVYYCARELADWGQGTLVTVSS
VL: DVVMTQSPLSLPVTLGQPASISCRSSQSLVYSDGNTYLNWFQQRPGQSPRRLIYQVSNRDSGVPDRFSGSGSGTDFTLKIGRVEAEDVGVYFCMQGTHWPWTFGQGTKVEIKR
notes: Human IgG
B13: M22 (antibody, human IgG1, kappa, V domains shown)
VH: EVQLVESGGGLVQPGGSLRLSCAASGFTVSSNYMSWVRQAPGKGLEWVSVIYSGGTTYYADSVKGRFTISRHNSKNTLYLQMNSLRAEDTAVYYCARDHDPDYGGYYMDVWGKGTTVTVSS
VL: B12 VL
notes: Human IgG
B14: M21 (antibody, human IgG1, kappa, V domains shown)
VH: EVQLVESGGGLVQPGGSLRLSCAASGFTVSSNYMSWVRQAPGKGLEWVSVIYSGGSTYYADSVKGRFTISRDNSKNTLYLQMNSLRAEDTAVYYCARDQEHYFDGSGYYVDYWGQGTLVTVSS
VL: B12 VL
notes: Human IgG

Columns and labels:
[1] = target: T1, SEQ ID NO: 346 glycopeptide with …; assay: ELISA on coated glycopeptide, antibody 0.01 mg/ml, mean of 3
From the text: (§1) Selected antibodies from Table 1 were further characterized for binding to synthetic MUC1 glycopeptides that were synthesized with the GalNac or GaNac-Gal carbohydrates on various serines and threonines along the MUC1 tandem repeat. If placed within the specific epitope recognized by an antibody, the antibody would not bind that particular glycopeptide.

[2] = target: T2, SEQ ID NO: 346 glycopeptide with …; assay: as above
From the text: as §1

[3] = target: T3, SEQ ID NO: 346 glycopeptide with …; assay: as above
From the text: as §1

[4] = target: T4, SEQ ID NO: 346 glycopeptide with …; assay: as above
From the text: as §1

[5] = target: T5, SEQ ID NO: 346 glycopeptide with …; assay: as above
From the text: as §1

[6] = target: T6, SEQ ID NO: 346 glycopeptide with …; assay: as above
From the text: as §1

[7] = target: T7, Synthetic peptide …; assay: ELISA on coated peptide, antibody 0.01 mg/ml, mean of 3
From the text: as §1

[8] = target: T8, Synthetic peptide HGVTSAPDTRPAPGSTAPP; assay: as above
From the text: as §1

[9] = target: T9, 100 aa-long synthetic MUC1 peptide (…)5; assay: ELISA titration on coated 100-mer peptide, EC50 approximated
T9 construct: also called 100-mer; vaccine 100-mer peptide
From the text: (§2) Heavy and light chains of antibodies reactive against MUC1 were generated from plasma of individuals vaccinated with a 100 aa-long synthetic MUC1 peptide (100-mer) representing the unglycosylated tumor associated MUC1 antigen (Kimura et al., 2013, Cancer Prev. Res. (Phila.), 6:18-26). Binding of monoclonal antibodies produced by combinatorial pairing of chains was characterized by ELISA using the vaccine 100-mer peptide consisting of the following sequence ([…])₅ (SEQ ID NO: 2). Briefly, 96-well high-binding ELISA plates were coated with 50 μl of the peptide diluted in carbonate buffer at 2 μg/ml. The wells were washed then blocked with 5% fat-free milk in phosphate-buffered saline (PBS). Antibodies were diluted in 5% milk in PBS with 0.1% TWEEN 20 (PBS-T) and then added to the peptide-coated, blocked wells and incubated at 37° C. for 2 hours, after which the wells were washed. Binding of antibody was probed with an anti-human IgG goat antibody conjugated to horseradish peroxidase (HRP), and signal was detected with 3,3′,5,5′-tetramethylbenzidine (TMB) substrate, which was neutralized with an acid, then the 450 nm absorbance was read. […] Additionally, the EC₅₀ of each antibody was approximated by ELISA titration (Table 1).

[10] = target: T9, 100 aa-long synthetic MUC1 peptide (…)5; assay: ELISA on coated 100-mer peptide
From the text: as §2

Binder	ELISA absorbance at 450 nm [1]	ELISA absorbance at 450 nm [2]	ELISA absorbance at 450 nm [3]	ELISA absorbance at 450 nm [4]	ELISA absorbance at 450 nm [5]	ELISA absorbance at 450 nm [6]	ELISA absorbance at 450 nm [7]	ELISA absorbance at 450 nm [8]	EC50 [9]	binding result [10]
B1	0.1 absorbance	0.1 absorbance	0.1 absorbance	0.1 absorbance	0.1 absorbance	0.1 absorbance	3.2 absorbance	0.1 absorbance	11 ng/mL	–
B2	0.1 absorbance	0.1 absorbance	0.1 absorbance	0.1 absorbance	0.1 absorbance	0.1 absorbance	3.4 absorbance	0.1 absorbance	7 ng/mL	–
B3	0.1 absorbance	0.1 absorbance	0.1 absorbance	0.1 absorbance	0.1 absorbance	0.1 absorbance	3.1 absorbance	0.1 absorbance	11 ng/mL	–
B4	0.1 absorbance	0.1 absorbance	0.1 absorbance	0.1 absorbance	0.1 absorbance	0.1 absorbance	3.5 absorbance	0.1 absorbance	11 ng/mL	–
B5	–	1.3 absorbance	–	–	2.2 absorbance	–	3.3 absorbance	2.2 absorbance	11 ng/mL	–
B6	1.6 absorbance	2.1 absorbance	–	–	2.4 absorbance	–	2.9 absorbance	2.1 absorbance	2 ng/mL	–
B7	1.6 absorbance	2.1 absorbance	–	–	2.5 absorbance	–	3 absorbance	2.1 absorbance	4 ng/mL	–
B8	–	–	–	–	–	–	–	–	–	binds
B9	1.5 absorbance	2.7 absorbance	–	–	2.5 absorbance	–	3.3 absorbance	2.4 absorbance	–	binds
B10	–	–	–	–	–	–	–	–	–	binds
B11	1.7 absorbance	2.4 absorbance	–	–	2.5 absorbance	–	2.9 absorbance	2 absorbance	–	binds
B12	2 absorbance	2.1 absorbance	1.9 absorbance	–	–	1.9 absorbance	2.8 absorbance	1.9 absorbance	4 ng/mL	–
B13	2.2 absorbance	2.2 absorbance	2.3 absorbance	–	–	2.3 absorbance	3.1 absorbance	2.1 absorbance	7 ng/mL	–
B14	2.1 absorbance	2.1 absorbance	2.2 absorbance	–	–	2.1 absorbance	3 absorbance	2.1 absorbance	11 ng/mL	–

Reference: patent US20160145343A1 (UNIVERSITY OF PITTSBURGH OF THE COMMONWEALTH SYSTEM OF …, published 2016)
